Publication PMC8956578, “The inner side of yeast PCNA contributes to genome stability by mediating interactions with Rad18 and the replicative DNA polymerase δ” (Scientific Reports, 2022)

Molecular target: the molecule itself
Assay: native gel or EMSA; increasing concentrations of purified wild-type and mutant PCNA on a 12% non-denaturing polyacrylamide gel

B1: wild-type PCNA (proliferating cell nuclear antigen), purified (natural protein, yeast, UniProt P15873 1-258, looked up)
chain: MLEAKFEEASLFKRIIDGFKDCVQLVNFQCKEDGIIAQAVDDSRVLLVSLEIGVEAFQEYRCDHPVTLGMDLTSLSKILRCGNNTDTLTLIADNTPDSIILLFEDTKKDRIAEYSLKLMDIDADFLKIEELQYDSTLSLPSSEFSKIVRDLSQLSDSINIMITKETIKFVADGDIGSGSVIIKPFVDMEHPETSIKLEMDQPVDLTFGAKYLLDIIKGSSLSDRVGIRLSSEAPALFQFDLKSGFLQFFLAPKFNDEE
notes: PCNA (POL30), yeast; open reading frame cloned in N-terminal fusion with GST; also called Pol30; source: protease deficient yeast strain BJ5464, galactose inducible promoter (pBJ842 backbone), purified
In the case of B1, the “stoichiometry N” value is reported as 3.
